Changes are numbered by the printed parent chain. Numbers in names are those of the source.
B1: MBP-Stv1NT-FLAG (cytosolic N-terminal domain of the yeast Golgi V-ATPase Vo a-subunit isoform Stv1, aa 1-418) (domain or fragment, S. cerevisiae, UniProt P37296 1-418, looked up)
chain: MNQEEAIFRSADMTYVQLYIPLEVIREVTFLLGKMSVFMVMDLNKDLTAFQRGYVNQLRRFDEVERMVGFLNEVVEKHAAETWKYILHIDDEGNDIAQPDMADLINTMEPLSLENVNDMVKEITDCESRARQLDESLDSLRSKLNDLLEQRQVIFECSKFIEVNPGIAGRATNPEIEQEERDVDEFRMTPDDISETLSDAFSFDDETPQDRGALGNDLTRNQSVEDLSFLEQGYQHRYMITGSIRRTKVDILNRILWRLLRGNLIFQNFPIEEPLLEGKEKVEKDCFIIFTHGETLLKKVKRVIDSLNGKIVSLNTRSSELVDTLNRQIDDLQRILDTTEQTLHTELLVIHDQLPVWSAMTKREKYVYTTLNKFQQESQGLIAEGWVPSTELIHLQDSLKDYIETLGSEYSTVFNVIL
B2: MBP-Stv1NT(K84A)-FLAG (domain or fragment, S. cerevisiae, UniProt P37296 1-418, looked up)
chain: B1 chain with K84A

Target: the molecule itself
Assay: SEC

| Protein | binding result |
| --- | --- |
| B1 | binds |
| B2 | binds |

Source: PMC5597324 (Molecular Biology of the Cell, 2017)
